Measured values reported in patent US20220288219A1 (MYTHIC THERAPEUTICS, published 2022).
Changes are numbered by the printed parent chain. Names and notes keep the numbering of the source.

Target: T1, CD22 Protein (His Tag), Sino Biological Cat. No. 11958-H08H (UniProt P20273 20-687)
T1 construct: soluble analyte, 50 nM in BLI; also called Sino Biological antigen
T1 sequence (looked up): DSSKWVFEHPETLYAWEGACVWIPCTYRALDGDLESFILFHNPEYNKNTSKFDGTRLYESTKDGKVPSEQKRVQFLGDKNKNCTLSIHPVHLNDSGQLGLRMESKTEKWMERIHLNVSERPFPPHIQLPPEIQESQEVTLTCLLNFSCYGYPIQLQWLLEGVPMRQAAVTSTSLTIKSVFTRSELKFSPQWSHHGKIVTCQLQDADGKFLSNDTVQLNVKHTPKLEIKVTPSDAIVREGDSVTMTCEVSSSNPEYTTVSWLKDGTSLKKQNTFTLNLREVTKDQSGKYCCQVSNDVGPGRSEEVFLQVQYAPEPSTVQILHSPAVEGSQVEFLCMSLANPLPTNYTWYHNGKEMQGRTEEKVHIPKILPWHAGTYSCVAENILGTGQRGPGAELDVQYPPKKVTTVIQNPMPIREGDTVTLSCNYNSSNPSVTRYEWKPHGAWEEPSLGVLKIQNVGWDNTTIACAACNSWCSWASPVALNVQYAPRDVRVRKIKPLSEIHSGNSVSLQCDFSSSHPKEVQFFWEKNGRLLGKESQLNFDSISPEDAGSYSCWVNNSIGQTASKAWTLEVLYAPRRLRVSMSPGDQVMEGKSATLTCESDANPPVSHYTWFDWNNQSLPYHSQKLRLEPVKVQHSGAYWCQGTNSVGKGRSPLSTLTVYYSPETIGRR
Assay: BLI, IgG on anti-human Fc sensor

B1: MYT2275 (antibody, V domains shown)
VH: EVQLVESGGGLVKPGGSLRLSCAASGFAFSHYDMSWVRQAPGKGLEWVAYISSGGGTTYYPDTVKGRFTISRDNAKNSLYLQMSSLRAEDTAMYYCARHSGYGSSYGVLFAYWGQGTLVTVSS
VL: DIQMTQSPSSLSASVGDRVTITCRASQDISNYLNWYQQKPGKAVKLLIYYTSILHSGVPSRFSGSGSGTDYTLTISSLQQEDFATYFCQQGNTLPWTFGGGTKVEIK
notes: TRPH-222 VH I31H; tie by order
- binding result: no binding (tested: 50 nM)

B2: MYT2303 (antibody, V domains shown)
VH: B1 VH with H31I, G103H
VL: B1 VL
notes: TRPH-222 VH G103H; tie by order
- binding result: no binding (tested: 50 nM)

B3: MYT2301 (antibody, V domains shown)
VH: B1 VH with H31I, G101H
VL: B1 VL
notes: TRPH-222 VH G101H; tie by order
- binding result: no binding (tested: 50 nM)

B4: MYT1496 (antibody, V domains shown)
VH: QVQLVQSGAEVKKPGSSVKVSCKASHYTFTSYWLHWVRQAPGQGLEWIGYINPRNDYTEYNQNFKDKATITADESTNTAYMELSSLRSEDTAFYFCARRDITTFYWGQGTTVTVSS
VL: DIQLTQSPSSLSASVGDRVTMSCKSSQSVLYSANHKNYLAWYQQKPGKAPKLLIYWASTRESGVPSRFSGSGSGTDFTFTISSLQPEDIATYYCHQYLSSWTFGGGTKVQIK
notes: ADCT-602 VH G26H; tie by order
- binding result: no binding (tested: 50 nM)

B5: MYT1521 (antibody, V domains shown)
VH: B4 VH with H26G, K65H
VL: B4 VL
notes: ADCT-602 VH K65H; tie by order
- binding result: no binding (tested: 50 nM)

B6: MYT1507 (antibody, V domains shown)
VH: B4 VH with H26G, I51H
VL: B4 VL
notes: ADCT-602 VH I51H; tie by order
- binding result: no binding (tested: 50 nM)

B7: MYT1504 (antibody, V domains shown)
VH: B4 VH with H26G, L34H
VL: B4 VL
notes: ADCT-602 VH L34H; tie by order
- binding result: no binding (tested: 50 nM)

B8: MYT1508 (antibody, V domains shown)
VH: B4 VH with H26G, N52H
VL: B4 VL
notes: ADCT-602 VH N52H; tie by order
- binding result: no binding (tested: 50 nM)

B9: MYT1497 (antibody, V domains shown)
VH: B4 VH with H26G, Y27H
VL: B4 VL
notes: ADCT-602 VH Y27H; tie by order
- binding result: no binding (tested: 50 nM)

B10: MYT1505 (antibody, V domains shown)
VH: B4 VH with H26G, H35A
VL: B4 VL
notes: ADCT-602 VH H35A; tie by order
- binding result: no binding (tested: 50 nM)

B11: MYT1513 (antibody, V domains shown)
VH: B4 VH with H26G, Y57H
VL: B4 VL
notes: ADCT-602 VH Y57H; tie by order
- binding result: no binding (tested: 50 nM)

B12: MYT1499 (antibody, V domains shown)
VH: B4 VH with H26G, F29H
VL: B4 VL
notes: ADCT-602 VH F29H; tie by order
- binding result: no binding (tested: 50 nM)

B13: MYT1498 (antibody, V domains shown)
VH: B4 VH with H26G, T28H
VL: B4 VL
notes: ADCT-602 VH T28H; tie by order
- binding result: no binding (tested: 50 nM)

B14: MYT1509 (antibody, V domains shown)
VH: B4 VH with H26G, P53H
VL: B4 VL
notes: ADCT-602 VH P53H; tie by order
- binding result: no binding (tested: 50 nM)

B15: MYT1523 (antibody, V domains shown)
VH: B4 VH with H26G, A97H
VL: B4 VL
notes: ADCT-602 VH A97H; tie by order
- binding result: no binding (tested: 50 nM)
